Molecular target: T1, Swi2N (Schizosaccharomyces pombe, UniProt Q10668 1-391)
T1 sequence: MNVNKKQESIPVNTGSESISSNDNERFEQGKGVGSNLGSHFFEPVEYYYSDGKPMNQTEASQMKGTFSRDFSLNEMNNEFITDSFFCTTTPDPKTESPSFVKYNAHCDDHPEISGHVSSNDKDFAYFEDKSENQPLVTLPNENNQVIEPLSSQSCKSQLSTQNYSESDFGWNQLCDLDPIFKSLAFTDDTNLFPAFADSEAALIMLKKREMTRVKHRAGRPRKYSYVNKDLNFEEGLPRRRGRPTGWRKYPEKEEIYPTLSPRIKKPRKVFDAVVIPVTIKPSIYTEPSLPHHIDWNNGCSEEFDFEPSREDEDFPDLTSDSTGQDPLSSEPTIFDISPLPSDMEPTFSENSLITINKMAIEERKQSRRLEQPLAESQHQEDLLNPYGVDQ
Assay: EMSA; 20 mM Tris-HCl pH 7.5, 100 mM NaCl, 5% glycerol, 1 mM DTT, room temperature 10 min; 1% agarose in TAE
Details: protein: recombinant; tags: His-SUMO removed by Ulp1; label: 5' FAM; single strand

B1: FAM-H1 (59 nt) (ssDNA)
DNA: CATGGAAACGAACGAGAGAAAACAAAGGAGAAAGACTATACATTTATATTACAAAAAAA
binding result: no binding

Reference: publication PMC10164574, “Fission yeast Swi2 designates cell-type specific donor and stimulates Rad51-driven strand exchange for mating-type switching”
